Structures can show the parent of a compound that is named as a salt. Where two headings read alike, the source gives them in different places. Numbered stars: 1 amine (or outer) side, 2 acyl side, 3 side chain; on linkers, the order of the positions; unused ones are H or OH. Square brackets hold non-standard residues; d marks the D form. Ends that are not written are not given here. Peptide text beside a SMILES is read from it. MetSta(3S,4S) = CSCC[C@H](N[*:1])[C@@H](O)CC(=O)[*:2]; Sta = CC(C)C[C@H](N)[C@@H](O)CC(=O)O

Data on 13 molecules can be found in US10947272B2, “BACE1 inhibitor peptides” (HOFFMANN-LA ROCHE INC., priority 2015, dated 2021).

One experiment addresses T1, BACE1 (Homo sapiens, UniProt P56817).
T1 construct: Human HEK293 cells which are stably transfected with a vector expressing a cDNA of the human APP wt gene (APP695); endogenous in cells; host or cells: HEK293 (human), stably transfected with human APP695 wt cDNA
Description: Cellular Aβ-lowering assay (Aβ40 ELISA of culture supernatant). To be noted: HEK293 cells stably transfected with human APP wt (APP695), Aβ40 in supernatant, read-out: IC 50. Type of experiment: cell-based. On the procedure: The compounds were investigated in accordance with the test given hereinafter. Cellular Aβ-Lowering Assay: Human HEK293 cells which are stably transfected with a vector expressing a cDNA of the human APP wt gene (APP695) were used to assess the potency of the compounds in a cellular assay. The cells were seeded in 96-well microtiter plates in cell culture medium (Iscove, plus 10% (v/v) fetal bovine serum, glutamine, penicillin/streptomycin) to about 80% confluence and the compounds were added at a 10× concentration in 1/10 volume of medium without FCS containing 8% DMSO (final concentration of DMSO was kept at 0.8% v/v). After 18-20 hrs incubation at 37° C. and 5% CO2 in a humidified incubator the culture supernatant was harvested for the determination of Aβ40 concentrations. 96 well ELISA plates (e.g., Nunc MaxiSorb) were coated with monoclonal antibody which specifically recognize the C-terminal end of Aβ40 (Brockhaus et al., NeuroReport 9, 1481-1486; 1998). After blocking of non-specific binding sites with e.g. 1% BSA and washing, the culture supernatants were added in suitable dilutions together with a horseradish peroxidase-coupled Aβ detection antibody (e.g., antibody 4G8, Senetek, Maryland Heights, Mo.) and incubated for 5 to 7 hrs. Subsequently the wells of the microtiter plate were washed extensively with Tris-buffered saline containing 0.05% Tween 20 and the assay was developed with tetramethylbenzidine/H2O2 in citric acid buffer. After stopping the reaction with one volume 1 N H2SO4 the reaction was measured in an ELISA reader at 450 nm wavelength. The concentrations of Aβ in the culture supernatants were calculated from a standard curve obtained with known amounts of pure Aβ peptide.
(In general: An ELISA detects its analyte on a solid surface through an enzyme-linked reagent.)

The target of experiment [1] is BACE1 (Asp2, β-secretase, Memapsin-2) in HEK293 cells stably expressing human APP695 (UniProt P56817). Description: cell-based or functional assay.
Chain of BACE1 (Asp2, β-secretase, Memapsin-2) in HEK293 cells stably expressing human APP695 (UniProt P56817) (P56817 46-501 limits assumed): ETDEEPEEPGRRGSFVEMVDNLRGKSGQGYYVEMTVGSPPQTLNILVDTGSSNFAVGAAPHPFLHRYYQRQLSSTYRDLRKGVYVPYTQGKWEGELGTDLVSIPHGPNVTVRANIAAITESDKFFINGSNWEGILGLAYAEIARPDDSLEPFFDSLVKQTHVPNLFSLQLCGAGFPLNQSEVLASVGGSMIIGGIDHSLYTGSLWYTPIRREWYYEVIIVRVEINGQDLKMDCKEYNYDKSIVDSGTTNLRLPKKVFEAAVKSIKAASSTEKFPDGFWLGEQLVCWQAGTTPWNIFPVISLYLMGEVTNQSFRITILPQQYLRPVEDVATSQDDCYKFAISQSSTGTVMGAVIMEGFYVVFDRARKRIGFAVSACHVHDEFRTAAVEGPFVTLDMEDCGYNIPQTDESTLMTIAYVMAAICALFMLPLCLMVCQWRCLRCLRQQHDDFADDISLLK
The target in experiment [2] is T2, BACE1 (Asp2, β-secretase, Memapsin-2) in HEK293 cells stably expressing human APP695 (UniProt P56817 46-501, limits assumed). In words: cell-based or functional assay.
T2 sequence (P56817 46-501 limits assumed): as above
Experiment [3] has as its target T2, BACE1 (Asp2, β-secretase, Memapsin-2) …. In words: cell-based or functional assay. The source holds these as a separate data set.

T1 sequence (P56817 46-501): as the sequence (P56817 46-501 limits assumed) above

`CC[C@H](C)[C@H](NC(=O)[C@H](Cc1ccccc1)NC(=O)[C@H](CCCCN)NC(=O)[C@@H]1CCCN1C(=O)[C@H](Cc1ccc(O)cc1)NC(=O)[C@H](CO)NC(=O)CNC(C)=O)C(=O)N[C@@H](CC(=O)O)C(=O)N[C@@H](C)C(=O)N[C@@H](CC(N)=O)C(N)=O` [Example E6, Ac-Gly-Ser-Tyr-Pro-Lys-Phe-Ile-Asp-Ala-Asn-NH2] (Ac-GSYPKFIDAN-NH2): at BACE1 (exosite motifs alone), the IC50 was over 40 µM. Consider `CC[C@H](C)[C@H](NC(=O)[C@H](Cc1ccccc1)NC(=O)[C@H](Cc1ccc(O)cc1)NC(=O)[C@@H]1CCCN1C(=O)[C@@H](N)Cc1ccc(O)cc1)C(=O)N1CCC[C@H]1C(=O)N[C@@H](CC(C)C)C(=O)NCC(=O)NCC(=O)NCC(=O)N[C@@H](CCC(=O)O)C(=O)N[C@H](C(=O)N[C@@H](CC(N)=O)C(=O)N[C@@H](CC(C)C)[C@@H](O)CC(=O)N[C@H](C(=O)N[C@@H](C)C(=O)N[C@@H](CCC(=O)O)C(=O)N1CCC[C@@H]1C(N)=O)C(C)C)C(C)C` [Example 2, Tyr-Pro-Tyr-Phe-Ile-Pro-Leu-Gly-Gly-Gly-Glu-Val-Asn-Sta-Val-Ala-Glu-DPro-NH2 × TFA], for which, at BACE1 (dual-site BACE1 inhibitors, 18-20 hrs incubation), the IC50 amounted to 0.42 µM. For the molecule H-YPY[dK]IPLG[dK]GEVN[Sta]VAE[dP]-NH2, the IC 50, cellular Aβ-lowering assay (Aβ40 in supernatant of HEK293 cells expressing human APP695) in experiment [1] came to 34.8 µM.

B1: Ac-Leu-Thr-Thr-Tyr-Pro-Tyr-Phe-Lys-Pro-Ala-NH2 (peptide)
peptide: Ac-LTTYPYFKPA-NH2
Consider B1, for which, in experiment [2], the “IC 50, cellular Aβ-lowering assay (Aβ40 in supernatant of HEK293 cells expressing human APP695)” value (“IC 50, cellular Aβ-lowering assay” for short) was 14.4 µM.

B2: Ac-Gly-Ser-Tyr-Pro-Lys-Phe-Ile-Asp-Ala-Asn-NH2 (peptide)
peptide: Ac-GSYPKFIDAN-NH2
Consider B2, for which, in experiment [2], the “IC 50, cellular Aβ-lowering assay” value was over 40 µM.

B3: Ac-Gly-Asp-Tyr-Pro-Lys-Phe-Ile-Ser-Ala-Asn-NH2 (peptide)
peptide: Ac-GDYPKFISAN-NH2
In the case of B3, the “IC 50, cellular Aβ-lowering assay” value in experiment [2] is over 40 µM.

B4: Ac-Gln-Gln-Tyr-Pro-Tyr-Phe-Lys-Pro-Ala-Asn-NH2 (peptide)
peptide: Ac-QQYPYFKPAN-NH2
For the molecule B4, the “IC 50, cellular Aβ-lowering assay” value in experiment [2] is over 40 µM.

B5: Ac-YPTFKPANGS-NH2 (peptide)
peptide: Ac-YPTFKPANGS-NH2
modifications: not fully specified; printed as Ac-YPTFKPANGS-NH2
For B5, in experiment [2], the “IC 50, cellular Aβ-lowering assay” value is over 40 µM.

B6: Glu-Val-Asn-Sta-Val-Ala-Glu-DPro-NH2 × TFA (peptide)
peptide: EVN[Sta]VAE[dP]-NH2
modifications: also: TFA salt
In the case of B6, the “IC 50, cellular Aβ-lowering assay” value in experiment [3] was over 40 µM.

B7: Glu-Val-Asn-Sta-Val-Ala-Glu-Phe-NH2 × TFA (peptide)
peptide: EVN[Sta]VAEF-NH2
modifications: also: TFA salt
In the case of B7, the “IC 50, cellular Aβ-lowering assay” value in experiment [3] is over 40 µM.

B8: Ac-Ser-Thr-Gly-Ala-Arg-Phe-Ile-Pro-Ala-Asn-NH2 (peptide)
peptide: Ac-STGARFIPAN-NH2
Take B8: the “IC 50, cellular Aβ-lowering assay” value in experiment [2] was over 40 µM.

B9: Ac-Gly-Asp-Tyr-Pro-Lys-Phe-Ile-Pro-Ala-Ser-NH2 (peptide)
peptide: Ac-GDYPKFIPAS-NH2
As to B9, in experiment [2], the “IC 50, cellular Aβ-lowering assay” value was over 40 µM.

B10: Glu-Val-Asn-MetSta-Val-Ala-Glu-DPhe-NH2 × TFA (peptide)
peptide: EVN[MetSta(3S,4S)]VAE[dF]-NH2
modifications: also: TFA salt
For B10, the “IC 50, cellular Aβ-lowering assay” value in experiment [3] was over 40 µM.
